Earlier results on one substance are cited in article PMC5114699.

This data set addresses Glu148 (UniProt position 148, MVLGREGPTVQ).

As to “ClC-ec1 Cl-/H+ antiporter (H(+)/Cl(-) exchange transporter ClcA) (Escherichia coli)”, the pKa is given as 6.2.

For orientation: pKa means the negative logarithm of the acid dissociation constant.
